Source: US20130115676
Changes are numbered by the printed parent chain.

Tests used:
Assay in all cases: cleavage_in_vitro
[1] = test system: T1, AvrII-HF Y104F (Anabaena variabilis); conditions: NEB4, 10 mM Mg acetate, 37 C
T1 sequence: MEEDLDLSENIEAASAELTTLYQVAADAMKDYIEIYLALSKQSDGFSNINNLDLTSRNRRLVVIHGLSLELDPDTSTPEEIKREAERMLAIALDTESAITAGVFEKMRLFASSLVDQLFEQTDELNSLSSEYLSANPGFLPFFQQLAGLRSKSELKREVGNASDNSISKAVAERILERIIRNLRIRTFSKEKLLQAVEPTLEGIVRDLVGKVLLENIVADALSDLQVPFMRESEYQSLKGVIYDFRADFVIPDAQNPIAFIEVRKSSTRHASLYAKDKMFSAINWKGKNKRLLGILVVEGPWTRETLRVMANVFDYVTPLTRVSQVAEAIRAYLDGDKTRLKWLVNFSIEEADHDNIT

[2] = test system: T2, AvrII (Anabaena variabilis); conditions: NEB1, 10 mM MgCl2, 37 C
T2 sequence: T1 sequence with F104Y

[3] = target: T3, SalI-HF R107A (Streptomyces albus G) (UniProt Q53608); conditions: NEB2, 10 mM MgCl2, 37 C; Table 10 gives FI >=2000
T3 sequence: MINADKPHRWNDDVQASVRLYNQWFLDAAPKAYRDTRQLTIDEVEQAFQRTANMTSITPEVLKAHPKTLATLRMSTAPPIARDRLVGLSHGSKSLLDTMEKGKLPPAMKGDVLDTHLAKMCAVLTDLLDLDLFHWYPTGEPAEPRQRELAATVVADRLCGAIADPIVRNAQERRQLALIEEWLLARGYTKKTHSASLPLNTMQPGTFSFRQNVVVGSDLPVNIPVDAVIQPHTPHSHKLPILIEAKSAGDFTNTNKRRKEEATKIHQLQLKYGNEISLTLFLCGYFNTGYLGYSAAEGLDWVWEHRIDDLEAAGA

[4] = target: T4, SalI (Streptomyces albus G) (UniProt Q53608); conditions: NEB3, 10 mM MgCl2, 37 C; Table 10 gives FI 4
T4 sequence: T3 sequence with A107R

[5] = target: T5, PvuII-HF T46G (Proteus vulgaris) (UniProt P23657); conditions: NEB4, 10 mM Mg acetate, 37 C
T5 sequence: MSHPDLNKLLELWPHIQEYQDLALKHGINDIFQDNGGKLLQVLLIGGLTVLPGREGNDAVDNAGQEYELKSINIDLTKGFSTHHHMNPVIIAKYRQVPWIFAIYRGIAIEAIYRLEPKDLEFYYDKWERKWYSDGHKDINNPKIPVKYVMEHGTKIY

PvuII (Proteus vulgaris) = target: T6, PvuII (Proteus vulgaris) (UniProt P23657); conditions: NEB1, 10 mM MgCl2, 37 C
T6 sequence: T5 sequence with G46T

[6] = test system: T7, BspQI-HF K279P/R388F (Bacillus sphaericus); conditions: NEB4, 10 mM Mg acetate, 50 C
T7 sequence: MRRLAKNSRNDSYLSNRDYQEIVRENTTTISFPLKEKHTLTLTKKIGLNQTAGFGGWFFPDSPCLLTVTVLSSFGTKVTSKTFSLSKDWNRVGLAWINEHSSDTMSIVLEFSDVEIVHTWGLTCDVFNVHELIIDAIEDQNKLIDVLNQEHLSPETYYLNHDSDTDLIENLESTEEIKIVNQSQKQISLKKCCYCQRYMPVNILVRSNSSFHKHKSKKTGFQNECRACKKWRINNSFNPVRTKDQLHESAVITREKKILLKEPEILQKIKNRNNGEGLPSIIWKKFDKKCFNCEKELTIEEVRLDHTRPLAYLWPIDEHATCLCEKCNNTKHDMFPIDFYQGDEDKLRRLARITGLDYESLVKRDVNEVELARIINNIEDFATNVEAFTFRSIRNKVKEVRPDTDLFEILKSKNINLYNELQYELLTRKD

Work on T7 DNA yielded an activity (fidelity index) [1] of over 1000 and an activity (fidelity index) [2] of 64.

For lambda DNA HindIII-digested, the activity (fidelity index) [3] was over 64000 and the activity (fidelity index) [4] was 32.

Substance pBR322 has an activity (fidelity index) [5] of 500 and an activity (fidelity index) (PvuII (Proteus vulgaris)) of 250.

Work on pUC19 yielded an activity (fidelity index) [6] of over 4000.
